Sequences and labels used below:
T1: Cynomolgus macaques TSLP recombinant protein (Cynomolgus macaques, UniProt Q969D9 29-159 (human entry), limits assumed, biotinylated in the blocking assays (sites not given))
T1 construct: also called cyTSLP; biotinylated Cynomolgus macaques TSLP protein
T1 chain: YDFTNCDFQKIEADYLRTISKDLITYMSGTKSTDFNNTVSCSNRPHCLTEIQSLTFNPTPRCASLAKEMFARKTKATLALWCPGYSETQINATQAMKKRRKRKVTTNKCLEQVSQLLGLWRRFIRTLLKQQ

B1: Ab21 (antibody, V domains shown)
VH: QVQLVQSGAEVKKPGSSVKVSCKASGYTFTDYWMHWVRQAPGQGLEWMGTIDNSDSDTTYNQKFQGRVTMTRDTSTSTVYMELSSLRSEDTAVYYCARSVDGYLDYWGQGTLVTVSS
VL: DIQMTQSPSSLSASVGDRVTITCRTSENIYSYLAWYQQKPGKAPKLLIYFAKTLTDGVPSRFSGSGSGTDFTLTISSLQPEDFATYYCQHHYGTPWTFGQGTKVEIK
notes: Humanized; also called h71G4VHv3/h71G4VKv1
B2: Ab20 (antibody, V domains shown)
VH: B1 VH with M70L, R72V, V79A
VL: B1 VL
notes: Humanized; also called h71G4VHv2/h71G4VKv1
B3: Ab6 (antibody, V domains shown)
VH: B1 VH with T59S, Y60L, M70L, R72V, V79A, V100L, L104Y
VL: B1 VL with T25A, F50N, K52R, T55P, D56E, G93T
notes: Humanized; also called h39G5VHv6/h39G5VKv1
B4: Ab19 (antibody, V domains shown)
VH: QVQLVQSGAEVKKPGSSVKVSCKASGYTFTDYWMHWVRQAPGQGLEWMGTIDNSDSDTTYNPSFQGHVTISADKSISTAYLQWSSLKASDTAMYYCARSVDGYLDYWGQGTLVTVSS
VL: B1 VL
notes: Humanized; also called h71G4VHv1/h71G4VKv1
B5: Ab16 (antibody, V domains shown)
VH: B4 VH
VL: B1 VL with T25A, F50N, K52R, T55P, D56E, G93T
notes: Humanized; also called h71G4VHv1/h39G5VKv1
B6: Ab25 (antibody, V domains shown)
VH: B1 VH with T59S, Y60L, M70L, R72V, V79A, V100L, L104Y
VL: B1 VL
notes: Humanized; also called h39G5VHv6/h71G4VKv1
B7: Ab9 (antibody, V domains shown)
VH: EVQLVQSGAEVKKPGESLKISCKASGYTFTDYWMHWVRQMPGKGLEWMGTIDNSDSDTSLNQSFQGHVTLSVDKSSTTAYLQWSSLKASDTAMYYCARSLDGYYDYWGQGTLVTVSS
VL: B1 VL with T25A, F50N, K52R, T55P, D56E, G93T
notes: Humanized; also called h39G5VHv9/h39G5VKv1
B8: Ab13 (antibody, V domains shown)
VH: B7 VH with T50I, N53P, L70I, V72A, S76I, T77S
VL: B1 VL with T25A, F50N, K52R, T55P, D56E, G93T
notes: Humanized; also called h39G5VHv13/h39G5VKv1
B9: Ab17 (antibody, V domains shown)
VH: B1 VH with M70L, R72V, V79A
VL: B1 VL with T25A, F50N, K52R, T55P, D56E, G93T
notes: Humanized; also called h71G4VHv2/h39G5VKv1
B10: Ab11 (antibody, V domains shown)
VH: B1 VH with T59S, Y60L, M70I, R72A, V79A, V100L, L104Y
VL: B1 VL with T25A, F50N, K52R, T55P, D56E, G93T
notes: Humanized; also called h39G5VHv11/h39G5VKv1
B11: Ab4 (antibody, V domains shown)
VH: EVQLVQSGAEVKKPGESLRISCKASGYSFISYWIHWVRQMPGKGLEWMGIIDPSDSDTSLNQSFQGHVTISADKSISTAYLQWSSLKASDTAMYYCARSLDGYYDYWGQGTLVTVSS
VL: B1 VL with T25A, F50N, K52R, T55P, D56E, G93T
notes: Humanized; also called h39G5VHv4/h39G5VKv1
B12: Ab3 (antibody, V domains shown)
VH: B11 VH with I70L, A72V, I76S, S77T
VL: B1 VL with T25A, F50N, K52R, T55P, D56E, G93T
notes: Humanized; also called h39G5VHv3/h39G5VKv1
B13: Ab10 (antibody, V domains shown)
VH: B1 VH with T50I, N53P, T59S, Y60L, M70I, R72A, V79A, V100L, L104Y
VL: B1 VL with T25A, F50N, K52R, T55P, D56E, G93T
notes: Humanized; also called h39G5VHv10/h39G5VKv1
B14: Ab27 (antibody, V domains shown)
VH: B1 VH with T59S, Y60L, M70I, R72A, V79A, V100L, L104Y
VL: B1 VL
notes: Humanized; also called h39G5VHv11/h71G4VKv1
B15: Ab18 (antibody, V domains shown)
VH: B1 VH
VL: B1 VL with T25A, F50N, K52R, T55P, D56E, G93T
notes: Humanized; also called h71G4VHv3/h39G5VKv1
B16: Ab5 (antibody, V domains shown)
VH: B1 VH with T50I, N53P, T59S, Y60L, M70L, R72V, V79A, V100L, L104Y
VL: B1 VL with T25A, F50N, K52R, T55P, D56E, G93T
notes: Humanized; also called h39G5VHv5/h39G5VKv1
B17: Ab7 (antibody, V domains shown)
VH: B1 VH with T59S, Y60L, M70L, R72V, T74E, T76S, V79A, V100L, L104Y
VL: B1 VL with T25A, F50N, K52R, T55P, D56E, G93T
notes: Humanized; also called h39G5VHv7/h39G5VKv1
B18: Ab8 (antibody, V domains shown)
VH: B7 VH with T50I, N53P
VL: B1 VL with T25A, F50N, K52R, T55P, D56E, G93T
notes: Humanized; also called h39G5VHv8/h39G5VKv1
B19: Ab1 (antibody, V domains shown)
VH: QVQLVQSGAEVKKPGSSVKVSCKASGYSFISYWIHWVRQAPGQGLEWMGIIDPSDSDTSLNQKFQGRVTLTVDKSSTTAYMELSSLRSEDTAVYYCARSLDGYYDYWGQGTLVTVSS
VL: B1 VL with T25A, F50N, K52R, T55P, D56E, G93T
notes: Humanized; also called h39G5VHv1/h39G5VKv1
B20: Ab2 (antibody, V domains shown)
VH: B19 VH with L70I, V72A, K74E, S76T, T77S
VL: B1 VL with T25A, F50N, K52R, T55P, D56E, G93T
notes: Humanized; also called h39G5VHv2/h39G5VKv1
B21: Ab15 (antibody, V domains shown)
VH: B7 VH with L70I, V72A
VL: B1 VL with T25A, F50N, K52R, T55P, D56E, G93T
notes: Humanized; also called h39G5VHv15/h39G5VKv1

Changes are numbered by the printed parent chain.

The target in one experiment is T2, human TSLP recombinant protein (human, UniProt Q969D9 29-159, biotinylated in the blocking and cell-binding assays (sites not given)). The experiment can be described thus: cell-based or functional assay.
As for B1, the “Inhibition of Cell Proliferation IC50” value was 178 nM.
Still for that read-out and setting: then B2, with 46.2 nM.

The target in the next experiment is T2, human TSLP recombinant protein. The experiment can be described thus: ELISA on coated human TSLP.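 Further: binding detected by TMB colour development for 10 min at 37 °C, then absorbance measured at 450 nm.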 Background: In an ELISA, binding on a coated surface is turned into a signal by an enzyme label.
Method: (§1) The plate was washed three times with PBS and blocked by adding 200 μL/well of PBS containing 2% skim milk for 1 hour. […] After washing with PBST and PBS three times, respectively, 100 μL of TMB substrate was added to each well for color development at 37° C. for 10 minutes, the reaction was terminated with 50 μL of 2M sulfuric acid solution per well, and the absorbance was read at a wavelength of 450 nm.
Regarding B3, the EC50 (as a rule, the concentration at which the effect is half-maximal) turned out to be 2.79 nM.
The same measure, in the same setting: under B4 stands 0.27 nM.
Regarding B1, the half-maximal effective concentration (EC50) was determined as 0.28 nM.
The same measure, in the same setting: under B5 stands 5.87 nM.
The same measure, in the same setting: under B6 stands 0.27 nM.
Consider B7, for which the EC50 is 3.03 nM.
Still for that read-out and setting: under B8 stands 0.66 nM; under B9, 1.98 nM; under B2, 0.17 nM.
In the case of B10, the EC50 was determined as 36 nM.
Same read-out and setting: under B11 stands 0.39 nM; under B12, 0.22 nM.
On the same count and under the same terms, then B13, with 0.32 nM; and B14, with 1.08 nM.
The same measure, in the same setting: then B15, with 2.15 nM; and B16, with 0.26 nM.
Regarding B17, the 50% effective concentration (EC50) amounted to 1.89 nM.
Same read-out and setting: under B18 stands 0.4 nM; under B19, 0.19 nM.
On the same count and under the same terms, then B20, with 0.21 nM; and B21, with 62.9 nM.

For another experiment, the target named is T1, Cynomolgus macaques TSLP recombinant …. The experiment can be described thus: ELISA on coated cynomolgus TSLP.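 Further: Read-out was TMB colorimetric signal measured as absorbance at 450 nm after 10 min development at 37 °C.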
Method: as §1
For the molecule B3, the binding result was “binds”.
Regarding B4, the EC50 was 0.65 nM.
As for B1, the EC50 worked out at 0.54 nM.
On the same count and under the same terms, under B5 stands 12.6 nM; under B6, 1.16 nM; under B7, 209 nM.
On the same count and under the same terms, under B8 stands 5.68 nM.
The same measure, in the same setting: under B9 stands 4.44 nM; under B2, 0.27 nM.
Regarding B10, the binding result is listed as “binds”.
On to B11, for which the EC50 came out at 5.54 nM.
Turning to B12, the concentration for a half-maximal effect (EC50) came out at 2.22 nM.
Still for that read-out and setting: under B13 stands 2.24 nM; under B14, 4.22 nM.
On the same count and under the same terms, then B15, with 17.9 nM; and B16, with 2.85 nM.
Turning to B17, the binding result is “binds”.
As to B18, the EC50 turned out to be 5.51 nM.
Still for that read-out and setting: under B19 stands 2.29 nM; under B20, 2.53 nM.
As for B21, the binding result was “no binding”.

For another experiment, the target named is T2, human TSLP recombinant protein. The experiment can be described thus: competition ELISA, biotin-human TSLP to coated human TSLPR-Fc.
Method: Human TSLPR recombinant protein was coated onto a 96-well microtiter plate at 1 μg/mL in carbonate buffer overnight at 4° C. The plate was washed three times with PBS and blocked by adding 200 μL/well of PBS containing 2% skim milk for 1 hour. […] The 96-well plate was washed three times with PBS, and 100 μL of the incubated mixture was added to each well and incubated for 1 hour at room temperature. After washing with PBST and PBS three times, respectively, 100 μL of SA-HRP was added to each well and incubated at room temperature for 30 minutes in the dark. After washing with PBST and PBS three times, respectively, 100 μL of TMB substrate was added to well for color development at 37° C. for 10 minutes, the reaction was terminated with 50 μL of 2M sulfuric acid solution per well, and the absorbance was read at a wavelength of 450 nm.
Consider B4, for which the half-maximal inhibitory concentration (IC50) (as a rule, the concentration needed to halve the response being measured) is 2.74 nM.
B1: the IC50 turned out to be 2.18 nM.
As for B6, the half-maximal inhibitory concentration (IC50) was 1.82 nM.
For the molecule B8, the half-maximal inhibitory concentration (IC50) amounted to 1.1 nM.
The same measure, in the same setting: then B2, with 2 nM.
The same measure, in the same setting: then B11, with 1.69 nM.
The same measure, in the same setting: then B12, with 1.65 nM.
Regarding B13, the IC50 was 1.36 nM.
With B16, the concentration for half-maximal inhibition (IC50) is 1.69 nM.
On to B18, for which the IC50 was 2.05 nM.
On to B19, for which the IC50 stood at 1.7 nM.
Same read-out and setting: then B20, with 1.49 nM.

Another experiment addresses T1, Cynomolgus macaques TSLP recombinant …. The experiment can be described thus: competition ELISA, biotin-cynomolgus TSLP to coated cynomolgus TSLPR-Fc.
Method: Cynomolgus macaques TSLPR recombinant protein was coated onto a 96-well microtiter plate at 1 g/mL in carbonate buffer overnight at 4° C. The plate was washed three times with PBS and blocked by adding 200 μL/well of PBS containing 2% skim milk for 1 hour. […] The 96-well plate was washed three times with PBS, and 100 μL of the incubated mixture was added to each well and incubated for 1 hour at room temperature. After washing with PBST and PBS three times, respectively, 100 μL of SA-HRP was added to each well and incubated at room temperature for 30 minutes in the dark. After washing with PBST and PBS three times, respectively, 100 μL of TMB substrate was added to well for color development at 37° C. for 10 minutes, the reaction was terminated with 50 μL of 2M sulfuric acid solution per well, and the absorbance was read at a wavelength of 450 nm.
As for B4, the IC50 turned out to be 1.76 nM.
Still for that read-out and setting: under B1 stands 1.08 nM; under B6, 0.85 nM.
The same measure, in the same setting: under B8 stands 0.55 nM; under B2, 1.32 nM; under B11, 0.43 nM.
On the same count and under the same terms, then B12, with 0.62 nM.
B13: the 50% inhibitory concentration (IC50) came to 0.37 nM.
Take B16: the IC50 was found to be 0.28 nM.
On the same count and under the same terms, under B18 stands 1 nM; under B19, 1.78 nM.
On the same count and under the same terms, then B20, with 1.1 nM.

Another experiment has as its target T2, human TSLP recombinant protein. Briefly: flow cytometry competition, biotin-human TSLP to Ba/F3-hTSLPR-IL7Rα cells. For orientation: Flow cytometry measures light scatter and fluorescence of single cells or particles in a stream.
Method: Ba/F3-hTSLPR-IL7Rα cells were washed three times with PBS, centrifuged at 300 g for 3 minutes, and blocked with 3% BSA/PBS for 30 minutes. The cells were resuspended and added to a 96-well U-plate at 5×10⁴/well.
As for B4, the concentration for half-maximal inhibition (IC50) came out at 0.45 nM.
Still for that read-out and setting: then B1, with 0.36 nM.
Still for that read-out and setting: then B6, with 0.35 nM; and B2, with 0.33 nM.

(Values after patent publication US20230029835A1 (KEYMED BIOSCIENCES, published 2023).)
